Laboratory results as given in publication PMC9357155 (Cancer Discovery, 2022).

T1: Full-length His-tagged MALT1 (human, UniProt Q9UDY8 1-824)
T1 sequence: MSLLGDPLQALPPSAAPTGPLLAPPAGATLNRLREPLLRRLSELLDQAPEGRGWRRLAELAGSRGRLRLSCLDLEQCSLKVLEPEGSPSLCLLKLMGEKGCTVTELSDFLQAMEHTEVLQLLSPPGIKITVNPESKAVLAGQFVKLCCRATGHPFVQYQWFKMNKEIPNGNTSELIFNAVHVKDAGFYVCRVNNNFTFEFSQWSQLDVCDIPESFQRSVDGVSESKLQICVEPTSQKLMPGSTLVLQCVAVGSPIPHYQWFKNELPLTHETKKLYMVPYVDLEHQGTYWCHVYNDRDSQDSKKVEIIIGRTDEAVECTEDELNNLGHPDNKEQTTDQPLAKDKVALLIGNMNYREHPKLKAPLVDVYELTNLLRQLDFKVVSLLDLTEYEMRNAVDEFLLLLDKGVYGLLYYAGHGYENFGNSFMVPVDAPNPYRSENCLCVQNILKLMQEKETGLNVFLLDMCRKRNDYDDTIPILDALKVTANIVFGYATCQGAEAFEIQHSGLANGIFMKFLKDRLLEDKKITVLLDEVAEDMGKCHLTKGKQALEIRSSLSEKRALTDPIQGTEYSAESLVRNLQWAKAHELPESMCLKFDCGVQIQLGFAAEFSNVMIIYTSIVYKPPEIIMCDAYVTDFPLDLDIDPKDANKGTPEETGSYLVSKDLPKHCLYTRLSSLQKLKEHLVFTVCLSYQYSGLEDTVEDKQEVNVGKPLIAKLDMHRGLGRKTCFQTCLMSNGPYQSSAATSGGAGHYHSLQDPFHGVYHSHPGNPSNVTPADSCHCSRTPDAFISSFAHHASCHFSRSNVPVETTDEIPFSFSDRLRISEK

B1: BCL10 wild type, full length, after removal of the MBP tag by 3C protease (natural protein)
chain: MEPTAPSLTEEDLTEVKKDALENLRVYLCEKIIAERHFDHLRAKKILSREDTEEISCRTSSRKRAGKLLDYLQENPKGLDTLVESIRREKTQNFLIQKITDEVLKLRNIKLEHLKGLKCSSCEPFPDGATNNLSRSNSDESNFSEKLRASTVMYHPEGESSTTPFFSTNSSLNLPVLEVGRTENTIFSSTTLPRPGDPGAPPLPPDLQLEEEGTCANSSEMFLPLRSRTVSRQ
modifications: Alexa488 (C5-maleimide) on cysteine residues in the confocal and quenching assays; not labelled for EM
B2: BCL10 E140X truncation mutant, after removal of the MBP tag by 3C protease (domain or fragment)
chain: MEPTAPSLTEEDLTEVKKDALENLRVYLCEKIIAERHFDHLRAKKILSREDTEEISCRTSSRKRAGKLLDYLQENPKGLDTLVESIRREKTQNFLIQKITDEVLKLRNIKLEHLKGLKCSSCEPFPDGATNNLSRSNSD
modifications: Alexa488 (C5-maleimide) on cysteine residues in the confocal and quenching assays; not labelled for EM
B3: BCL10 R58Q, full length, after removal of the MBP tag by 3C protease (natural protein)
chain: MEPTAPSLTEEDLTEVKKDALENLRVYLCEKIIAERHFDHLRAKKILSREDTEEISCQTSSRKRAGKLLDYLQENPKGLDTLVESIRREKTQNFLIQKITDEVLKLRNIKLEHLKGLKCSSCEPFPDGATNNLSRSNSDESNFSEKLRASTVMYHPEGESSTTPFFSTNSSLNLPVLEVGRTENTIFSSTTLPRPGDPGAPPLPPDLQLEEEGTCANSSEMFLPLRSRTVSRQ
modifications: Alexa488 (C5-maleimide) on cysteine residues in the confocal and quenching assays; not labelled for EM
B4: MBP-fused BCL10 E140X (domain or fragment)
chain: MEPTAPSLTEEDLTEVKKDALENLRVYLCEKIIAERHFDHLRAKKILSREDTEEISCRTSSRKRAGKLLDYLQENPKGLDTLVESIRREKTQNFLIQKITDEVLKLRNIKLEHLKGLKCSSCEPFPDGATNNLSRSNSD

Experiments:
[1] = molecular target: T1, Full-length His-tagged MALT1; assay: negative-stain EM
[2] = molecular target: T1, Full-length His-tagged MALT1; assay: fluorescence quenching polymerisation assay
SEC = molecular target: the molecule itself; assay: SEC

| Binder | binding result [1] | other results |
| --- | --- | --- |
| B1 | binds | – |
| B2 | binds | – |
| B3 | – | binding result [2]: binds |
| B4 | – | binding result (SEC): binds |
